Laboratory results: patent US20030166873A1 (Genentech, published 2003)

B1: PlGF152 (expression plasmid of Park et al.) (ligand, UniProt P49763-3 19-170, looked up)
chain: LPAVPPQQWALSAGNGSSEVEVVPFQEVWGRSYCRALERLVDVVSEYPSEVEHMFSPSCVSLLRCTGCCGDENLHCVPVETANVTMQLLKIRSGDRPSYVELTFSQHVRCECRPLREKMKPERRRPKGRGKRRREKQRPTDCHLCGDAVPRR
modifications: 35S-labeled amino acids
notes: also called PIGF; placental growth factor
B2: Labeled VEGF (ligand, UniProt P15692-4 27-191, looked up)
chain: APMAEGGGQNHHEVVKFMDVYQRSYCHPIETLVDIFQEYPDEIEYIFKPSCVPLMRCGGCCNDEGLECVPTEESNITMQIMRIKPHQGQHIGEMSFLQHNKCECRPKKDRARQENPCGPCSERRKHLFVQDPQTCKCSCKNTDSRCKARQLELNERTCRCDKPRR
modifications: labeled (label not stated)
B3: VEGF165 (expression plasmid of Houck et al.) (ligand, UniProt P15692-4 27-191, looked up)
chain: B2 chain
modifications: 35S-labeled amino acids in Example 4
notes: The background calls VEGF a homodimer
B4: Flt4/IgG (extracellular domain of the Flt4 receptor, amino acids 1-775, spliced to the Fc region of a human IgG heavy chain) (Fc fusion, UniProt P35916 25-775, looked up)
chain: YSMTPPTLNITEESHVIDTGDSLSISCRGQHPLEWAWPGAQEAPATGDKDSEDTGVVRDCEGTDARPYCKVLLLHEVHANDTGSYVCYYKYIKARIEGTTAASSYVFVRDFEQPFINKPDTLLVNRKDAMWVPCLVSIPGLNVTLRSQSSVLWPDGQEVVWDDRRGMLVSTPLLHDALYLQCETTWGDQDFLSNPFLVHITGNELYDIQLLPRKSLELLVGEKLVLNCTVWAEFNSGVTFDWDYPGKQAERGKWVPERRSQQTHTELSSILTIHNVSQHDLGSYVCKANNGIQRFRESTEVIVHENPFISVEWLKGPILEATAGDELVKLPVKLAAYPPPEFQWYKDGKALSGRHSPHALVLKEVTEASTGTYTLALWNSAAGLRRNISLELVVNVPPQIHEKEASSPSIYSRHSRQALTCTAYGVPLPLSIQWHWRPWTPCKMFAQRSLRRRQQQDLMPQCRDWRAVTTQDAVNPIESLDTWTEFVEGKNKTVSKLVIQNANVSAMYKCVVSNKVGQDERLIYFYVTTIPDGFTIESKPSEELLEGQPVLLSCQADSYKYEHLRWYRLNLSTLHDAHGNPLLLDCKNVHLFATPLAASLEEVAPGARHATLSLSIPRVAPEHEGHYVCEVQDRRSHDKHCHKKYLSVQALEAPRLTQNLTDLLVNVSDSLEMQCLVAGAHAPSIVWYKDERLLEEKSGVDLADSNQKLSIQRVREEDAGRYLCSVCNAKGCVNSSASVAVEGSEDKGSME
modifications: 125I-iodinated where used as the labeled form (Example 6)
notes: range 25-775; also called Flt4 receptor-IgG fusion; ^125I-Flt4/IgG; not shown: Fc region (CH2CH3, plasmid pBSSK-Fc) of a human IgG heavy chain
B5: human VEGF-related protein (VRP), expressed from cDNA clone VH1.4 (plasmid pRK.vh1.4.2) (ligand)
chain: GPREAPAAAAAFESGLDLSDAEPDAGEATAYASKDLEEQLRSVSSVDELMTVLYPEYWKMYKCQLRKGGWQHNREQANLNSRTEETIKFAAAHTNTEILKSIDNEWRKTQCMPREVCIDVGKEFGVATNTFFKPPCVSVYRCGGCCNSEGLQCMNTSTSYLSKTLFEITVPLSQGPKPVTISFANHTSCRCMSKLDVYRQVHSIIRRSLPATLPQCQAANKTCPTNYMWNNHICRCLAQEDFMFSSDAGDDSTDGFHDICGPNKELDEETCQCVCRAGLRPASCGPHKELDRNSCQCVCKNKLFPSQCGANREFDENTCQCVCKRTCPRNQPLNPGKCACECTESPQKCLLKGKKFHHQTCSCYRRPCTNRQKACEPGFSYSEEVCRCVPSYWKRPQMS
modifications: 35S-labeled amino acids in Example 4
notes: The cleavage site after amino acid 20 is predicted ('most likely'; cleavage after 15 or 16 is not excluded); Flt4/IgG precipitated bands of 53 kDa and 33 kDa, so the secreted protein may be further processed
B6: VH1.4 gD fusion protein (herpes glycoprotein D sequence fused to the putative mature sequence of VRP, plasmid pRK.vh1.4.5) (ligand)
chain: KYALADASLKMADPNRFRGKDLPVLDQLLEGGAAHYALLPGPREAPAAAAAFESGLDLSDAEPDAGEATAYASKDLEEQLRSVSSVDELMTVLYPEYWKMYKCQLRKGGWQHNREQANLNSRTEETIKFAAAHTNTEILKSIDNEWRKTQCMPREVCIDVGKEFGVATNTFFKPPCVSVYRCGGCCNSEGLQCMNTSTSYLSKTLFEITVPLSQGPKPVTISFANHTSCRCMSKLDVYRQVHSIIRRSLPATLPQCQAANKTCPTNYMWNNHICRCLAQEDFMFSSDAGDDSTDGFHDICGPNKELDEETCQCVCRAGLRPASCGPHKELDRNSCQCVCKNKLFPSQCGANREFDENTCQCVCKRTCPRNQPLNPGKCACECTESPQKCLLKGKKFHHQTCSCYRRPCTNRQKACEPGFSYSEEVCRCVPSYWKRPQMS
notes: also called purified VRP; gD-VRP

How the values were obtained:
[1] = target: T1, Flk1/IgG (UniProt P35968 20-764, limits assumed); assay: receptor IgG / protein A precipitation of 35S-labeled conditioned medium
T1 construct: Construct known only by citation
T1 sequence (P35968 20-764 limits assumed): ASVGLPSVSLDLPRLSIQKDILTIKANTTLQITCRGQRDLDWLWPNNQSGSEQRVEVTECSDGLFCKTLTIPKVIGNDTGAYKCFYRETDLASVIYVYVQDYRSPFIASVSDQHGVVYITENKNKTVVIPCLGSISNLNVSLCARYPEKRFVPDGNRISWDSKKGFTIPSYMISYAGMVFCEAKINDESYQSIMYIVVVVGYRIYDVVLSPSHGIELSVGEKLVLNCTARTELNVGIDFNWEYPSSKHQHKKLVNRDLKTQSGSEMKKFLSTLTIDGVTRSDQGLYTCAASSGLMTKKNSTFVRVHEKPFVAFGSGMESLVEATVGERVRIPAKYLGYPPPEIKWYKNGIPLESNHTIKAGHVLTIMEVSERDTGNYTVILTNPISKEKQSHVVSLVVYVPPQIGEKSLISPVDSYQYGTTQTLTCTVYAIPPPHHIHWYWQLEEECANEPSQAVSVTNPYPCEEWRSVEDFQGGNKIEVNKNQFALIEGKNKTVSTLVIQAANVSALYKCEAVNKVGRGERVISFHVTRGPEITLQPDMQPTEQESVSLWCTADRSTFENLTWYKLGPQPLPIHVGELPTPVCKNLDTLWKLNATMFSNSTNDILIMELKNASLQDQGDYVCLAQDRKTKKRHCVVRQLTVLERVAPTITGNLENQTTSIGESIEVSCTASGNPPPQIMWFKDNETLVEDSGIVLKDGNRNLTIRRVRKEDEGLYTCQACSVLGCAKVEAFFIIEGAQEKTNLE

[2] = target: B4; assay: as above
[3] = target: B4; assay: binding of labeled VEGF to receptor IgG
[4] = target: B6; assay: competition of ^125I-Flt4/IgG binding to gD-VRP on 5B6 beads by increasing unlabeled Flt4/IgG
[5] = target: putative membrane-bound VRP (putative membrane-bound ligand) on human glioma cell line G61; assay: FACS, 70 nM receptor IgG on G61 cells, compared with Rse/IgG
[6] = target: B4; assay: receptor IgG / protein A precipitation of 35S-labeled COS7 conditioned medium
[7] = target: B4; assay: ^125I-Flt4/IgG binding to gD-VRP captured on 5B6 glass beads, filtration and counting

B1
binding result [1]: no binding (tested: 3 µg of receptor IgG)
binding result [2]: no binding (tested: 3 µg of receptor IgG)

B2
binding result [3]: no binding

B3
binding result [2]: no binding (tested: 3 µg of receptor IgG)

B4
EC50 [4]: ~0.7 nM
shift in peak fluorescence intensity [5]: ~10 fold

B5
binding result [6]: binds

B6
binding result [7]: binds
